The values that follow are results of earlier work, collected in PMC4657025.

The target of data set [1] is Asp85 (UniProt position 98, …).
Data set [2] concerns the target Asp96 (UniProt position 109, …). The experiment in a line: not stated in the text (title of ref 19 indicates FTIR spectroscopy). To be noted: dark state (unphotolysed BR).
The target of data set [3] is Asp85 (UniProt position 98, …). The note with it: 150 mM NaCl.

Where two headings read alike, the source gives them in different places.

B1: Bacteriorhodopsin (BR) (Halobacterium salinarum) (protein)
chain: QAQITGRPEWIWLALGTALMGLGTLYFLVKGMGVSDPDAKKFYAITTLVPAIAFTMYLSMLLGYGLTMVPFGGEQNPIYWARYADWLFTTPLLLLDLALLVDADQGTILALVGADGIMIGTGLVGALTKVYSYRFVWWAISTAAMLYILYVLFFGFTSKAESMRPEVASTFKVLRNVTVVLWSAYPVVWLIGSEGAGIVPLNIETLLFMVLDVSAKVGFGLILLRSRAIFGEAEAPEPSAGDGAAATSD
A word on the pKa: it is the negative logarithm of the acid dissociation constant. For the protein B1, the values for the pKa in data set [1], in data set [1] (150 mM NaCl) and in data set [2] were 2.7, 2.5 and above 11, respectively.

B2: Bacteriorhodopsin R82Q mutant (Halobacterium salinarum; R82Q) (protein)
chain: QAQITGRPEWIWLALGTALMGLGTLYFLVKGMGVSDPDAKKFYAITTLVPAIAFTMYLSMLLGYGLTMVPFGGEQNPIYWAQYADWLFTTPLLLLDLALLVDADQGTILALVGADGIMIGTGLVGALTKVYSYRFVWWAISTAAMLYILYVLFFGFTSKAESMRPEVASTFKVLRNVTVVLWSAYPVVWLIGSEGAGIVPLNIETLLFMVLDVSAKVGFGLILLRSRAIFGEAEAPEPSAGDGAAATSD
Turning to B2, the pKa in data set [3] is 7.2.
